Read-outs that look alike come from different tables or passages of the source.
Assays:
[1] = SPECT imaging of H2009 tumor xenograft, ROI-based tumor uptake; type: in vivo; details: SCID, mouse, iv, total radioactivity, i.v. injection of 36.5 MBq, scan time 1 h
Protocol: Fig. 6 Single-photon emission computed tomography (SPECT) of a SCID mouse bearing a human H2009 tumor xenograft on the right shoulder, recorded at 4 time points (1 h, 3 h, 24 h, and 72 h) after i.v. injection of 36.5 MBq of ^177Lu-Y8, scan time 1 h. Tumor position is indicated by white dotted circle. Adjacent figures denote ROI-based tumor uptakes in % IA mL^−1. TEXT PRINTED IN THE PICTURE: no label printed: % IA / mL: 2.8 (1 h p.i.); % IA / mL: 2.7 (3 h p.i.); % IA / mL: 2.4 (24 h p.i.); % IA / mL: 2.0 (72 h p.i.) DOUBTS OF THE COPYIST ABOUT THIS PICTURE: The picture prints no substance label. The unit % IA / mL is printed only at the colour scale bar, and assigning it to the numbers beside the dotted circles is assumed.
SPECT imaging was performed for 60 min per animal on a nanoScan SPECT/CT (Mediso, Budapest, Hungary) at different timepoints (1 h, 3 h, 24 h, 72 h) after intravenous injection of approx. 40 MBq [^177Lu]Lu-Y8 per animal (n = 2). Reconstruction, image analysis and quantification of SPECT data were performed using Nucline and Interview fusion software (both Mediso).

[2] = Ex vivo biodistribution of 177Lu-labeled peptide tetramers in H2009 xenografted SCID mice; details: CB17 SCID, mouse, iv, total radioactivity; for tissue uptake at 1.5 h: 90 min p.i.; for tissue uptake at 72 h: 199 pmol, 3 d p.i.; for tissue uptake at 24 h: 154 pmol, 24 h p.i.
How it was run: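 SCID mice carried subcutaneous H2009 xenografts on the right shoulder. 177Lu-labeled conjugates were injected i.v., and ex vivo organ distribution was measured at two time points post-injection.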

[3] = adrenals, H2009 bearing SCID mice, read-out: Adrenals %IA/g
[4] = blood, H2009 bearing SCID mice, read-out: Blood %IA/g
[5] = bone, H2009 bearing SCID mice, read-out: Bone %IA/g
[6] = heart (myocard), H2009 bearing SCID mice, read-out: Heart (myocard) %IA/g
[7] = kidneys, H2009 bearing SCID mice, read-out: Kidneys %IA/g
[8] = large intestine (empty), H2009 bearing SCID mice, read-out: Large intestine (empty) %IA/g
[9] = liver, H2009 bearing SCID mice, read-out: Liver %IA/g
[10] = lung, H2009 bearing SCID mice, read-out: Lung %IA/g
[11] = muscle, H2009 bearing SCID mice, read-out: Muscle %IA/g
[12] = pancreas, H2009 bearing SCID mice, read-out: Pancreas %IA/g
[13] = small intestine (empty), H2009 bearing SCID mice, read-out: Small intestine (empty) %IA/g

With `CC(C)C[C@@H]1NC(=O)[C@H](CC(=O)O)NC(=O)CNC(=O)[C@H](CCCNC(=N)N)NC(=O)[C@H](Cc2ccc(O)cc2)NC(=O)[C@H](CCCCNC(=O)CCc2cn(CCCNC(=O)CCP(=O)(O)CN3CCN(CP(=O)(O)CCC(=O)NCCCn4cc(CCC(=O)NCCCC[C@H]5C(=O)N[C@@H](Cc6ccc(O)cc6)C(=O)N[C@@H](CCCNC(=N)N)C(=O)NCC(=O)N[C@@H](CC(=O)O)C(=O)N[C@@H](CC(C)C)C(=O)N[C@@H](C)C(=O)N[C@@H](Cc6ccc(O)cc6)C(=O)N6CCC[C@@H]6C(=O)N5C)nn4)CCN(CP(=O)(O)CCC(=O)NCCCn4cc(CCC(=O)NCCCC[C@H]5C(=O)N[C@@H](Cc6ccc(O)cc6)C(=O)N[C@@H](CCCNC(=N)N)C(=O)NCC(=O)N[C@@H](CC(=O)O)C(=O)N[C@@H](CC(C)C)C(=O)N[C@@H](C)C(=O)N[C@@H](Cc6ccc(O)cc6)C(=O)N6CCC[C@@H]6C(=O)N5C)nn4)CCN(CP(=O)(O)CCC(=O)NCCCn4cc(CCC(=O)NCCCC[C@H]5C(=O)N[C@@H](Cc6ccc(O)cc6)C(=O)N[C@@H](CCCNC(=N)N)C(=O)NCC(=O)N[C@@H](CC(=O)O)C(=O)N[C@@H](CC(C)C)C(=O)N[C@@H](C)C(=O)N[C@@H](Cc6ccc(O)cc6)C(=O)N6CCC[C@@H]6C(=O)N5C)nn4)CC3)nn2)N(C)C(=O)[C@H]2CCCN2C(=O)[C@H](Cc2ccc(O)cc2)NC(=O)[C@H](C)NC1=O` [Compound 177Lu-Y8, metal not drawn] the tissue uptake per volume at 1 h ([1]; 1 h p.i.) was 2.8 %ID/mL, the tissue uptake per volume at 3 h ([1]; 3 h p.i.) was 2.7 %ID/mL and the tissue uptake per volume at 24 h ([1]; 24 h p.i.) was 2.4 %ID/mL. It also gave a tissue uptake per volume at 72 h ([1]; 72 h p.i.) of 2 %ID/mL, a tissue uptake at 1.5 h ([2]; H2009 tumor, 124 pmol, H2009 bearing SCID mice, read-out: Tumor H2009 %IA/g) of 5.89 %ID/g and a tissue uptake at 72 h ([2]; H2009 tumor, H2009 bearing SCID mice, read-out: Tumor H2009 %IA/g) of 1.67 %ID/g. The tissue uptake at 1.5 h ([2]; adrenals, 124 pmol, H2009 bearing SCID mice, read-out: Adrenals %IA/g) was 0.71 %ID/g, the tissue uptake at 24 h [2, 3] was 0.25 %ID/g and the tissue uptake at 72 h [2, 3] was 0.22 %ID/g. It also gave a tissue uptake at 1.5 h ([2]; adrenals, + 50 nmol non-labeled compound 10 min prior to activity, n = 2, read-out: Adrenals %IA/g, + 50 nmol cold) of 0.53 %ID/g, a tissue uptake at 1.5 h ([2]; blood, 124 pmol, H2009 bearing SCID mice, read-out: Blood %IA/g) of 2.54 %ID/g and a tissue uptake at 24 h [2, 4] of 0.04 %ID/g. The tissue uptake at 72 h [2, 4] was 0.03 %ID/g, the tissue uptake at 1.5 h ([2]; blood, + 50 nmol non-labeled compound 10 min prior to activity, n = 2, read-out: Blood %IA/g, + 50 nmol cold) was 1.06 %ID/g and the tissue uptake at 1.5 h ([2]; bone, 124 pmol, H2009 bearing SCID mice, read-out: Bone %IA/g) was 3.24 %ID/g. For the same compound, the tissue uptake at 24 h [2, 5] was 0.68 %ID/g, the tissue uptake at 72 h [2, 5] was 0.57 %ID/g and the tissue uptake at 1.5 h ([2]; bone, + 50 nmol non-labeled compound 10 min prior to activity, n = 2, read-out: Bone %IA/g, + 50 nmol cold) was 0.76 %ID/g. The tissue uptake at 1.5 h ([2]; heart (myocard), 124 pmol, H2009 bearing SCID mice, read-out: Heart (myocard) %IA/g) was 1.01 %ID/g, the tissue uptake at 24 h [2, 6] was 0.16 %ID/g and the tissue uptake at 72 h [2, 6] was 0.13 %ID/g. It also gave a tissue uptake at 1.5 h ([2]; heart (myocard), + 50 nmol non-labeled compound 10 min prior to activity, n = 2, read-out: Heart (myocard) %IA/g, + 50 nmol cold) of 0.64 %ID/g, a tissue uptake at 1.5 h ([2]; kidneys, 124 pmol, H2009 bearing SCID mice, read-out: Kidneys %IA/g) of 166 %ID/g and a tissue uptake at 24 h [2, 7] of 235 %ID/g. It also gave a tissue uptake at 72 h [2, 7] of 237 %ID/g, a tissue uptake at 1.5 h ([2]; kidneys, + 50 nmol non-labeled compound 10 min prior to activity, n = 2, read-out: Kidneys %IA/g, + 50 nmol cold) of 178 %ID/g and a tissue uptake at 1.5 h ([2]; large intestine (empty), 124 pmol, H2009 bearing SCID mice, read-out: Large intestine (empty) %IA/g) of 3.66 %ID/g. The tissue uptake at 24 h [2, 8] was 1.46 %ID/g, the tissue uptake at 72 h [2, 8] was 0.48 %ID/g and the tissue uptake at 1.5 h ([2]; large intestine (empty), + 50 nmol non-labeled compound 10 min prior to activity, n = 2, read-out: Large intestine (empty) %IA/g, + 50 nmol cold) was 0.89 %ID/g. The tissue uptake at 1.5 h ([2]; liver, 124 pmol, H2009 bearing SCID mice, read-out: Liver %IA/g) was 1.16 %ID/g, the tissue uptake at 24 h [2, 9] was 0.98 %ID/g and the tissue uptake at 72 h [2, 9] was 0.7 %ID/g. It also gave a tissue uptake at 1.5 h ([2]; liver, + 50 nmol non-labeled compound 10 min prior to activity, n = 2, read-out: Liver %IA/g, + 50 nmol cold) of 0.7 %ID/g, a tissue uptake at 1.5 h ([2]; lung, 124 pmol, H2009 bearing SCID mice, read-out: Lung %IA/g) of 5.63 %ID/g and a tissue uptake at 24 h [2, 10] of 1.2 %ID/g. It also gave a tissue uptake at 72 h [2, 10] of 0.73 %ID/g, a tissue uptake at 1.5 h ([2]; lung, + 50 nmol non-labeled compound 10 min prior to activity, n = 2, read-out: Lung %IA/g, + 50 nmol cold) of 3.39 %ID/g and a tissue uptake at 1.5 h ([2]; muscle, 124 pmol, H2009 bearing SCID mice, read-out: Muscle %IA/g) of 0.87 %ID/g. It also gave a tissue uptake at 24 h [2, 11] of 0.36 %ID/g, a tissue uptake at 72 h [2, 11] of 0.23 %ID/g and a tissue uptake at 1.5 h ([2]; muscle, + 50 nmol non-labeled compound 10 min prior to activity, n = 2, read-out: Muscle %IA/g, + 50 nmol cold) of 0.2 %ID/g. The tissue uptake at 1.5 h ([2]; pancreas, 124 pmol, H2009 bearing SCID mice, read-out: Pancreas %IA/g) was 0.42 %ID/g, the tissue uptake at 24 h [2, 12] was 0.14 %ID/g and the tissue uptake at 72 h [2, 12] was 0.12 %ID/g. For the same compound, the tissue uptake at 1.5 h ([2]; pancreas, + 50 nmol non-labeled compound 10 min prior to activity, n = 2, read-out: Pancreas %IA/g, + 50 nmol cold) was 0.19 %ID/g, the tissue uptake at 1.5 h ([2]; small intestine (empty), 124 pmol, H2009 bearing SCID mice, read-out: Small intestine (empty) %IA/g) was 3 %ID/g and the tissue uptake at 24 h [2, 13] was 1.03 %ID/g. For the same compound, the tissue uptake at 72 h [2, 13] was 0.16 %ID/g.

— article PMC11187563, “The importance of tyrosines in multimers of cyclic RGD nonapeptides: towards αvβ6-integrin targeted radiotherapeutics” (RSC Medicinal Chemistry, 2024)
